The values below come from patent US20230143003A1 (JULIUS MAXIMILIANS UNIVERSIT T W RZBURG, published 2023).

Substitutions are numbered along the chain they refer to. In names and notes the source's numbering stands. Several values for one entry are separate records, joined by “and”; a condition that tells them apart may be missing. Identical values can stand only once.

Assay [1] addresses T1, hROR2-Fc (human ROR2 Fc fusion protein) (human, UniProt Q01974 34-403, limits assumed).
T1 construct: Given both as hROR2-Fc and as Fc-hROR2, so the order of the two parts is not certain; also called Fc-hROR2; not shown: human Fc part (captured by a mouse anti-human IgG CH2 / Fcγ mAb)
The assay is described as follows: SPR; reference the existing anti-ROR2 antibody (XBR2-401).

For assay [2], the target named is T2, human ROR1 on cells (MDA-MB-231, ROR2-, ROR1+; also 786-O, ROR2+, ROR1+) (human, UniProt Q01973 30-937).
T2 construct: whole, on cells
The assay is described as follows: flow cytometry on MDA-MB-231 cells (ROR2-, ROR1+); Fab followed by PE-conjugated goat anti-human F(ab')2 pAbs.

Assay [3] addresses T1, hROR2-Fc (human ROR2 Fc fusion protein). The assay is described as follows: SPR (Biacore X100), Fc-hROR2 captured on CM5 chip via mouse anti-human Fcγ mAb, Fab as analyte, 1:1 binding model.
For assay [4] the target is unchanged. The assay is described as follows: SPR, Biacore X100; hROR2-Fc captured, Fab injected; reference Fab 401.
Assay [5] has the same target. The experiment in a line: SPR, Biacore X100; hROR2-Fc captured by anti-human Fc mAb on a CM5 chip, Fab injected.
The target in assay [6] is human ROR2 on cells (endogenous on T47D, 786-O and U266 cell lines); expressed on HEK 293 cells of the … (human, UniProt Q01974 34-943). The experiment in a line: cell-based or functional assay.
The target of assay [7] is T2, human ROR1 on cells (MDA-MB-231, ROR2-, …). The experiment in a line: flow cytometry on MDA-MB-231 cells (ROR2-, ROR1+); biAb followed by Alexa Fluor 647-conjugated donkey anti-human F(ab')2 pAbs.
For assay [8], the target named is human CD3 on Jurkat-T Lucia cells (CD3+) (human, UniProt P07766 23-207; P04234 22-171; P09693 23-182). The experiment in a line: flow cytometry on Jurkat-T Lucia cells (CD3+); scFv-Fc followed by Alexa Fluor 647-conjugated donkey anti-human F(ab')2 pAbs.
The target in assay [9] is T2, human ROR1 on cells (MDA-MB-231, ROR2-, …). The experiment in a line: Retrogenix cell microarray post-screen, ROR1 expressed on HEK 293 cells.

B1: XBR2-401-X3.12 Fab (affinity matured chimeric rabbit/human Fab) (Fab, V domains shown)
VH: QSVKESEGGLFKPTDTLTLTCTVSGFSLSSYGVTWVRQAPGSGLEWIGYINTAGNTYYASWAKSRSTITRNTNENTVTLKMTSLTAADTATYFCARDDRWSLNIWGPGTLVTVSS
VL: DPMLTQTPSSTSTAVGDTVTIKCQASQSISSDLSWYQQKPGQRPKLLIYQASTLASGVPSRFKGSGYGTEYTLTISGVQREDAAIYYCLGGYADASYRTAFGGGTKLEIK
notes: Chimeric rabbit/human Fab
As for B1, the “fold increase in binding affinity” value in assay [1] was 10 fold. For the same molecule, the binding result in assay [2] is given as “no binding”. In addition, in [3], binding was put at a Kd of 0.72 nM, the off-rate (koff) was determined as 3.3e-05 s⁻¹ and the kon came out at 45000 M⁻¹ s⁻¹. Also, in assay [4], the “fold improvement of affinity from 401” value is at least 5 fold. In assay [5], the Kd stood at 0.7 nM.

B2: 401×v9 ROR2×CD3 bispecific antibody (heterodimeric aglycosylated scFv-Fc) (bispecific antibody)
chain 1: DPMLTQTPSSTSTAVGDTVTIKCQASQSISSDLSWYQQKPGQRPKLLIYQASTLASGVPSRFKGSGYGTEYTLTISGVQREDAAIYYCLGGYADASYRTAFGGGTKLEIKGGGGSGGGGSGGGGSQSVKESEGGLFKPTDTLTLTCTVSGFSLSSYGVTWVRQAPGSGLEWIGYINTAGNTYYASWAKSRSTITRNTNENTVTLKMTSLTAADTATYFCARDWTSLNIWGPGTLVTVSSEPKSSDKTHTCPPCPAPELLGGPSVFLFPPKPKDTLMISRTPEVTCVVVDVSHEDPEVKFNWYVDGVEVHNAKTKPREEQYASTYRVVSVLTVLHQDWLNGKEYKCKVSNKALPAPIEKTISKAKGQPREPQVYTLPPCRDELTKNQVSLWCLVKGFYPSDIAVEWESNGQPENNYKTTPPVLDSDGSFFLYSKLTVDKSRWQQGNVFSCSVMHEALHNHYTQKSLSLSPGA
chain 2: EVQLVESGGGLVQPGGSLRLSCAASGYSFTGYTMNWVRQAPGKGLEWVALINPYKGVSTYNQKFKDRFTISVDKSKNTAYLQMNSLRAEDTAVYYCARSGYYGDSDWYFDVWGQGTLVTVSSGGGGSGGGGSGGGGSDIQMTQSPSSLSASVGDRVTITCRASQDIRNYLNWYQQKPGKAPKLLIYYTSRLESGVPSRFSGSGSGTDYTLTISSLQPEDFATYYCQQGNTLPWTFGQGTKVEIKEPKSSDKTHTCPPCPAPELLGGPSVFLFPPKPKDTLMISRTPEVTCVVVDVSHEDPEVKFNWYVDGVEVHNAKTKPREEQYASTYRVVSVLTVLHQDWLNGKEYKCKVSNKALPAPIEKTISKAKGQPREPQVCTLPPSRDELTKNQVSLSCAVKGFYPSDIAVEWESNGQPENNYKTTPPVLDSDGSFFLVSKLTVDKSRWQQGNVFSCSVMHEALHNHYTQKSLSLSPGA
On to B2, for which the “specific lysis of 786-O cells by expanded primary T cells (E:T 10:1, 16 h), EC50” value (“specific lysis of 786-O cells” below) in [6] is 0.19 µg/mL and 1.9 nM. Further, the binding result in assay [7] was “no binding”.

B3: hX3.12.6×v9 ROR2×CD3 bispecific antibody (heterodimeric aglycosylated scFv-Fc) (bispecific antibody)
chain 1: DPMLTQSPSSLSASVGDRVTITCQASQSISSDLSWYQQKPGKAPKLLIYQASTLASGVPSRFKGSGYGTEYTLTISSLQPEDFATYYCLGGYADASYRTAFGGGTKLEIKGGGGSGGGGSGGGGSEVQLVESGGGLVQPGGSLRLSCAASGFTFSSYGVTWVRQAPGKGLEWVSYINTAGNTYYASWAKSRFTISRDNAKNSLYLQMNSLRAEDTAVYYCARDDRWSLNIWGQGTLVTVSSEPKSSDKTHTCPPCPAPELLGGPSVFLFPPKPKDTLMISRTPEVTCVVVDVSHEDPEVKFNWYVDGVEVHNAKTKPREEQYASTYRVVSVLTVLHQDWLNGKEYKCKVSNKALPAPIEKTISKAKGQPREPQVYTLPPCRDELTKNQVSLWCLVKGFYPSDIAVEWESNGQPENNYKTTPPVLDSDGSFFLYSKLTVDKSRWQQGNVFSCSVMHEALHNHYTQKSLSLSPGA
chain 2: B2 chain 2
notes: ROR2 scFv on the knob Fc, v9 anti-CD3 scFv on the hole Fc, both N297A; also called hX3.12.6×V9 bi-mAb
B3: the “specific lysis of 786-O cells” value in assay [6] was 0.21 µg/mL and 2.1 nM. Further, in assay [7], the binding result is on record as “no binding”.

B4: hX3.12.5×v9 ROR2×CD3 bispecific antibody (heterodimeric aglycosylated scFv-Fc) (bispecific antibody)
chain 1: B3 chain 1 with V137I, F154V, A199S, S202T
chain 2: B2 chain 2
notes: ROR2 scFv on the knob Fc, v9 anti-CD3 scFv on the hole Fc, both N297A; also called hX3.12.5×V9 bi-mAb; hX3.12.5×CD3 bi-mAb
B4: the “specific lysis of 786-O cells” value in assay [6] was 0.15 µg/mL and 1.5 nM. Besides, in assay [7], the binding result is on record as “no binding”.

B5: hX3.12.6 scFv-Fc (IgG1-like format, two identical scFv fused to human IgG1 Fc) (Fc fusion)
chain: DPMLTQSPSSLSASVGDRVTITCQASQSISSDLSWYQQKPGKAPKLLIYQASTLASGVPSRFKGSGYGTEYTLTISSLQPEDFATYYCLGGYADASYRTAFGGGTKLEIKGGGGSGGGGSGGGGSEVQLVESGGGLVQPGGSLRLSCAASGFTFSSYGVTWVRQAPGKGLEWVSYINTAGNTYYASWAKSRFTISRDNAKNSLYLQMNSLRAEDTAVYYCARDDRWSLNIWGQGTLVTVSS
notes: The text says only: (Gly4Ser)3 linker between VL and VH, fused to the human IgG1 Fc fragment; also called mAb hX3.12.6 in scFv-Fc format; Humanized scFv-Fc xh3.12.6; not shown: human IgG1 Fc fragment
On to B5, for which the binding result in assay [8] was “no binding”; in assay [9], “no binding (tested: 20 µg/mL)”.
